Measurements reported in article PMC8185068, “Intracellular artificial supramolecules based on de novo designed Y15 peptides” (Nature Communications, 2021).

Target: the molecule itself
Test: thioflavin T fluorescence; synthetic peptides 5-50 µM in PBS, incubated 24 h at 37 °C, then 25 µM thioflavin T; fluorescence spectra

B1: Y15 peptide (peptide)
peptide: YEYKYEYKYEYKYEY
notes: de novo designed self-assembling peptide Y15; source: synthetic peptide (Fmoc solid-phase synthesis, RP-HPLC)
binding result: binds
